Non-standard residues stand in square brackets, D forms with d. No end group written: not given here.

Assay [1] addresses T1, Apo-A1 lipoprotein (Homo sapiens, UniProt P02647).
T1 construct: from tissue; host or cells: human plasma (whole or fibrinogen-depleted)
Kind of assay: Apo-A1 lipoprotein purification from fibrinogen-depleted plasma on peptide resin column (Example 4). The assay is classed as binding. Here is the method:
Apo-A1 lipoprotein purification was accomplished with D-WWLHIN (SEQ ID NO: 33) peptides and several analogs. Indeed, about 100% Apo-A1 lipoprotein depletion from plasma was repeatedly obtained with D-WWLHAN (SEQ ID NO: 56) and D-WWLHIN (SEQ ID NO: […]). Fourteen milliliters of fibrinogen-depleted plasma was loaded onto a 2.3 ml column (CF=0.785 cm^2) at 0.4 ml/min. (LV=30 cm/H; RT=5.8) that had been equilibrated with 0.14 M NaCl, 0.020 M sodium citrate, pH 7.0 (EQ buffer). After the column was washed with EQ buffer to baseline, Apo-A1 lipoprotein was eluted with 2.0 M NaCl, 1% Tween-20, 0.020M sodium citrate, pH 7.0. The column was regenerated with 2.0 M guanidine-HCl, 2% Sarkosyl, and 2% acetic acid and stored in 20% methanol.

Assay [2] addresses T2, API (Homo sapiens, UniProt P01009).
T2 construct: from tissue; host or cells: human plasma (whole, fibrinogen-depleted or F1-Apo-depleted)
Kind of assay: Primary screening of 6-mer library for API-binding ligands. The conditions noted are these: bead screening, immunodetection / radiolabel. The procedure: Peptide libraries attached to Toyopearl-AF Amino 650M resin or Tentagel resin were evaluated with 14C-labeled fibrinogen and API. All steps were performed at room temperature. Specifically, 20 mg of Toyopearl resin beads or 40 mg of Tentagel resin beads were suspended in 20% methanol for a minimum of 2 hours in 15 ml conical polypropylene tubes (Corning). After rinsing with distilled water, the resin beads were equilibrated in 0.15 M NaCl, 0.020 M sodium citrate, pH 7.3. The resin beads were then blocked for 2 hours with 1% casein (Sigma) in 0.15M NaCl, 0.020M sodium citrate, pH 7.3. Following blocking, the resin beads were centrifuged and the supernatant removed. A solution containing 1 mM of C^14-labeled fibrinogen or 30 μM of C^14-labeled API was applied to the resin beads in the blocking solution in the presence of 0.1% Tween-20 (Sigma). The materials were incubated for 2 hours. The resin beads were washed with 0.15 M NaCl, 0.020 M sodium citrate, 0.05% Tween-20, pH 7.3, in a batch method (fibrinogen ligands) or in disposable BioRad 10 ml columns (API ligands) until radiation counts reached the background level of less than 40 DPM. The resin beads were divided into separate tubes to obtain approximately 5–10 mg of resin beads per sheet. This was accomplished by mixing each aliquot of resin beads with 20–22 ml of 1% low melting agarose solution (Sigma) at less than 40° C., and rapidly pouring the mixture onto GelBond® film sheets (BMA Cat. No. 53749, 16×18 cm; Cat. No. 53759, 12.5×24.5 cm). Spreading of the resin beads to the edge of the gel sheets was prevented by creating frames (about 23 cm×about 10 cm or about 15 cm×about 15 cm) with several layers of masking tape. About 20–22 ml of resin bead-agarose mixture was plated on each GelBond sheet. Special care was taken to spread the beads in an even monolayer to facilitate identification and isolation of individual “hot” beads. The agarose gel was then air-dried overnight and placed, bead side down, on X-ray film (Kodak Biomax MR). The agarose and autoradiography film were exposed for 4–14 days followed by a second exposure of 7 days in an about 20 cm×about 25 cm stainless steel cassette. Afterwards, the films were taped together and marked with several staple holes to ensure proper alignment of beads in agarose to film. After the films were developed, the positive beads that appeared on both films were identified under the microscope and picked by aligning the developed film(s) and agarose gel via the staple holes. Beads to be sequenced were carefully picked by cutting a square trench around the bead with a scalpel, and hydrating this area with distilled water. […]

Assay [3] addresses T3, albumin (Homo sapiens, UniProt P02768).
T3 construct: from tissue; host or cells: human plasma (fibrinogen-depleted or F1-Apo-depleted)
Kind of assay: Albumin in AKVSKG / D-WWLHIN evaluation (Example 7). It counts as binding. The conditions noted are these: for binding of albumin in plasma: initial evaluation. Here is the method:
(§1) Conditions that prevented the binding of albumin from F1-Apo depleted plasma were identified. The capture of albumin by AKVSKG (SEQ ID NO: 45) and D-WWLHIN (SEQ ID NO: 33) can be prevented in the presence of 50 mM caproic acid or 1.0–2.2 M NaCl, respectively. An example for API purification with AKVSKG (SEQ ID NO: 45) is provided. F1-Apo-depleted plasma (10.7 ml) containing 50 mM caproic acid, was applied at 0.4 ml/min (LV=30 cm/h; RT=5.1) onto a 2.0 ml column (CF=0.785 cm^2) that had been equilibrated with 0.14 M NaCl, 0.020 M sodium citrate, pH 7.0 (EQ buffer). After the column was washed with 19 CVs of EQ buffer to baseline, API protein was eluted with 2.0 M NaCl, 0.020 M sodium citrate, pH 6.0. The column was regenerated with 2.0 M guanidine-HCl, 2% Sarkosyl and 2% acetic acid and stored in 20% methanol.

In assay [4] the target is T2, API. Kind of assay: Purification of API from F1-Apo-depleted plasma on HFVAPH column (Example 6). The assay is classed as binding. Here is the method:
(§2) Fibrinogen and Apo-A1 lipoprotein-depleted plasma (prepared in Example 5) was loaded at a linear velocity of 30 cm/hour (0.4 ml/min; RT=5.1) onto 2.0 ml column (CF=0.785 cm^2) that had been equilibrated with 0.14 M NaCl, 0.020 M sodium citrate, pH 7.0 (EQ buffer). After the column was washed with EQ buffer and 2.0 M NaCl, 0.020 M sodium citrate, pH 6.0, to baseline, the API protein was eluted with 2.0 M NaCl, 1% Tween 20, 0.020 M sodium citrate, pH 6.0. The column was regenerated with 2.0 M guanidine-HCl, 2% Sarkosyl and 2% acetic acid and stored in 20% methanol. SDS-PAGE analysis of in-process samples (reduced and non-reduced samples) was performed using a Novex 8–16% gradient gel. Not all of the API was quantitatively eluted, but could be eluted using 2M guanidine. Purification of API protein to approximately 70% purity was accomplished with ligand HFVAPH (SEQ ID NO: 46) (isolated from an L-Library).

In assay [5] the target is T3, albumin. Description: Albumin in HFVAPH column run (Example 6). The assay is classed as binding. Here is the method:
as §2

Assay [6] has as its target T2, API. Kind of assay: Purification of API from F1-Apo-depleted plasma on AKVSKG column (Example 7). The assay is classed as binding. The procedure: as §1
Where [7] appears, read: Elution Pool (without dialysis).

T2 sequence (P01009 25-418): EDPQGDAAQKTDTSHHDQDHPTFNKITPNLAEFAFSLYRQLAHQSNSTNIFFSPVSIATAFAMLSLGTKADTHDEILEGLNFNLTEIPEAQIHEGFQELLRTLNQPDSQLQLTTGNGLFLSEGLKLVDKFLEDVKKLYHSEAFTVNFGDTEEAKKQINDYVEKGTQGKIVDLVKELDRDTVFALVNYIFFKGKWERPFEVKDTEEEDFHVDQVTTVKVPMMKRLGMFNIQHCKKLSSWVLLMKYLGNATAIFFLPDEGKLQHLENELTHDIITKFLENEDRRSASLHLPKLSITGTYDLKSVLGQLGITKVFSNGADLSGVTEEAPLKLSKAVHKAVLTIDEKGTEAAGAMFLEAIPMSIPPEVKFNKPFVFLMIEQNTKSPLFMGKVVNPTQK
T1 sequence (P02647 25-267 limits assumed): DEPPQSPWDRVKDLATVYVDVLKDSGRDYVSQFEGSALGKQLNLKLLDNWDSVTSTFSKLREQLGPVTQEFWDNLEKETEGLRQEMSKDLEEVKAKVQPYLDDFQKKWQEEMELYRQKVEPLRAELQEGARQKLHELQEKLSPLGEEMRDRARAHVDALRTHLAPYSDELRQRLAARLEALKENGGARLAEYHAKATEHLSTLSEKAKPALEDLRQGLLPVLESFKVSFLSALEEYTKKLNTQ

As to “WWLHIN ([dW]WLHIN; not fully specified (residues 2, 3, 4, 5, 6)) [D-WWLHIN]”, the “Apo-A1 lipoprotein depletion from plasma” value in assay [1] is recorded as “about 100%”. For the same substance, the “identified as API-binding peptide ligand from the 6-mer library” value (shortened to “identified as API-binding peptide ligand”) in assay [2] is on record as “API-binding”. Moreover, in assay [3] (in the presence of 1.0–2.2 M NaCl), the “capture of albumin from F1-Apo depleted plasma” value was “prevented”. Further, in assay [3], the “binding of albumin in plasma” value is listed as “binds albumin in addition to API protein”.

For the substance HFVAPH, the “purity of purified API protein” value in assay [4] is given as “approximately 70%”. For the same substance, the API in assay [4] (2 M Guanidine #23) is 0.1 mg/mL; in assay [4] (Elution Pool (with dialysis), 2.0 M NaCl, 1% Tween 20), 0.15 mg/mL; in assay [4] (Elution Pool (without dialysis), 2.0 M NaCl, 1% Tween 20), 0.21 mg/mL; in assay [4] (Flow through, load 9.5 ml, 0.74 mg/ml) it was 0.21 mg/mL; in assay [4] (Postwash), under 0.04 mg/mL. Also, the “Total API” value in assay [4] (2 M Guanidine #23) amounted to 0.4 mg; in assay [4] (Elution Pool (with dialysis)) it was 1.2 mg; in assay [4] (setting [7]) it was 1.68 mg; in assay [4] (Flow through, load 7.03 mg) it was 3.36 mg. In addition, the “identified as API-binding peptide ligand” value in assay [2] is reported as “API-binding”. Also, the Albumin in assay [5] (2 M Guanidine #23) was under 0.02 mg/mL; in assay [5] (Elution Pool (with dialysis)) it was under 0.02 mg/mL; in assay [5] (setting [7]), under 0.02 mg/mL; in assay [5] (Flow through, load 22.6 mg/ml), 12.6 mg/mL; in assay [5] (Postwash), 0.93 mg/mL. Besides, in assay [5] (in the presence of sodium citrate), the “albumin binding from plasma” value is “does not bind albumin”.

Regarding “AKVSKG ([dA]KVSKG; not fully specified (residues 2, 3, 4, 5))”, in assay [2], the “identified as API-binding peptide ligand” value is “API-binding”. Besides, the Albumin in assay [3] (Elution (1% Tween)) was under 0.02 mg/mL; in assay [3] (Flow through + Post Wash, nephelometric determination, load 20 mg/ml), 7.8 mg/mL; in assay [3] (Wash (0.3 M NaCl)), 0.63 mg/mL; in assay [3] (Wash, first 2.0 ml fraction), 0.14 mg/mL; in assay [3] (Wash, second 2.0 ml fraction), 0.06 mg/mL. In assay [3] (in the presence of 50 mM caproic acid), the “capture of albumin from F1-Apo depleted plasma” value is “prevented”. Besides, the “binding of albumin in plasma” value in assay [3] is listed as “binds albumin in addition to API protein”. Besides, the “captured API protein recovered” value in assay [6] (2.0 M NaCl elution pool, nephelometric analysis) is recorded as 71%. Besides, the API in assay [6] (Elution (1% Tween)) was 0.05 mg/mL; in assay [6] (Elution (2 M NaCl)) it was 0.76 mg/mL; in assay [6] (Flow through + Post Wash, plasma load 10.7 ml, 1.19 mg/ml, 50 mM caproic acid), 0.07 mg/mL; in assay [6] (Wash (0.3 M NaCl)) it was 0.11 mg/mL; in assay [6] (Wash, first 2.0 ml fraction), 0.06 mg/mL; in assay [6] (Wash, second 2.0 ml fraction), under 0.04 mg/mL. Moreover, the “Total API” value in assay [6] (Elution (1% Tween)) came out at 0.5 mg; in assay [6] (Elution (2 M NaCl)), 7.6 mg; in assay [6] (Flow through + Post Wash, load 12.7 mg), 2.0 mg; in assay [6] (Wash (0.3 M NaCl)), 1.3 mg; in assay [6] (Wash, first 2.0 ml fraction), 0.1 mg. For the same substance, the “purity of the API eluate” value in assay [6] (densitometric analysis) was 85%.
